Assay results taken from patent publication US20260015399A1 (Boehringer Ingelheim, published 2026).
*1 amine or outer side, *2 acyl side, *3 side chain or, on linkers, in order; H or OH if unused. Side-chain parts run from the residue outwards. The star is where a group is joined. C18 diacid = O=C(O)CCCCCCCCCCCCCCCCC(=O)*; γGlu = O=C(O)[C@H](CCC(=O)[*:2])N[*:1]; Isovaleryl = CC(C)CC(=O)*; Ahx = NCCCCCC(=O)O

T1: human NPY2 receptor (human, UniProt P49146 1-381)
T1 construct: whole, on cells; also called hNPY2-R; hNPY2R
T1 sequence (looked up): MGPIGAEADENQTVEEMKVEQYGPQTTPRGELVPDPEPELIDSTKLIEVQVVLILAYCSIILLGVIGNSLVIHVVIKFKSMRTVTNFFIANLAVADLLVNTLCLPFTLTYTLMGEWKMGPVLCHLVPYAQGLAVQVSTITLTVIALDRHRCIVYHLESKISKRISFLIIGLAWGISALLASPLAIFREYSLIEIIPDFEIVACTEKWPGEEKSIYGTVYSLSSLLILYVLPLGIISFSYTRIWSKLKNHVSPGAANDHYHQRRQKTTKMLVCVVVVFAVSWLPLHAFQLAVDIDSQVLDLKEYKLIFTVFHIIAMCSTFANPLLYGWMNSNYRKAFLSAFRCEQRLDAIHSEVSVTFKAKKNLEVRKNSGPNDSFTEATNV


Biological target: T1, human NPY2 receptor
Experiment: RLB: displacement of 125I-PYY(1-36) from hNPY2R membranes

Binder | Ki [nM]
Isovaleryl-APEK([Ahx-γGlu-C18 diacid])PEEDASPEELQRYYVELRHYYNWLTRQRY-NH2 (SMILES CC(C)CC(=O)N[C@@H](C)C(=O)N1CCC[C@H]1C(=O)N[C@@H](CCC(=O)O)C(=O)N[C@@H](CCCCNC(=O)CCCCCNC(=O)CC[C@H](NC(=O)CCCCCCCCCCCCCCCCC(=O)O)C(=O)O)C(=O)N1CCC[C@H]1C(=O)N[C@@H](CCC(=O)O)C(=O)N[C@@H](CCC(=O)O)C(=O)N[C@@H](CC(=O)O)C(=O)N[C@@H](C)C(=O)N[C@@H](CO)C(=O)N1CCC[C@H]1C(=O)N[C@@H](CCC(=O)O)C(=O)N[C@@H](CCC(=O)O)C(=O)N[C@@H](CC(C)C)C(=O)N[C@@H](CCC(N)=O)C(=O)N[C@@H](CCCNC(=N)N)C(=O)N[C@@H](Cc1ccc(O)cc1)C(=O)N[C@@H](Cc1ccc(O)cc1)C(=O)N[C@H](C(=O)N[C@@H](CCC(=O)O)C(=O)N[C@@H](CC(C)C)C(=O)N[C@@H](CCCNC(=N)N)C(=O)N[C@@H](Cc1c[nH]cn1)C(=O)N[C@@H](Cc1ccc(O)cc1)C(=O)N[C@@H](Cc1ccc(O)cc1)C(=O)N[C@@H](CC(N)=O)C(=O)N[C@@H](Cc1c[nH]c2ccccc12)C(=O)N[C@@H](CC(C)C)C(=O)N[C@H](C(=O)N[C@@H](CCCNC(=N)N)C(=O)N[C@@H](CCC(N)=O)C(=O)N[C@@H](CCCNC(=N)N)C(=O)N[C@@H](Cc1ccc(O)cc1)C(N)=O)[C@@H](C)O)C(C)C) [Compound 125] | 3.37
Isovaleryl-APEK([Ahx-γGlu-C18 diacid])PEADATPEELQRYYVSLRHYYNWLTRQRY-NH2 (SMILES CC(C)CC(=O)N[C@@H](C)C(=O)N1CCC[C@H]1C(=O)N[C@@H](CCC(=O)O)C(=O)N[C@@H](CCCCNC(=O)CCCCCNC(=O)CC[C@H](NC(=O)CCCCCCCCCCCCCCCCC(=O)O)C(=O)O)C(=O)N1CCC[C@H]1C(=O)N[C@@H](CCC(=O)O)C(=O)N[C@@H](C)C(=O)N[C@@H](CC(=O)O)C(=O)N[C@@H](C)C(=O)N[C@H](C(=O)N1CCC[C@H]1C(=O)N[C@@H](CCC(=O)O)C(=O)N[C@@H](CCC(=O)O)C(=O)N[C@@H](CC(C)C)C(=O)N[C@@H](CCC(N)=O)C(=O)N[C@@H](CCCNC(=N)N)C(=O)N[C@@H](Cc1ccc(O)cc1)C(=O)N[C@@H](Cc1ccc(O)cc1)C(=O)N[C@H](C(=O)N[C@@H](CO)C(=O)N[C@@H](CC(C)C)C(=O)N[C@@H](CCCNC(=N)N)C(=O)N[C@@H](Cc1c[nH]cn1)C(=O)N[C@@H](Cc1ccc(O)cc1)C(=O)N[C@@H](Cc1ccc(O)cc1)C(=O)N[C@@H](CC(N)=O)C(=O)N[C@@H](Cc1c[nH]c2ccccc12)C(=O)N[C@@H](CC(C)C)C(=O)N[C@H](C(=O)N[C@@H](CCCNC(=N)N)C(=O)N[C@@H](CCC(N)=O)C(=O)N[C@@H](CCCNC(=N)N)C(=O)N[C@@H](Cc1ccc(O)cc1)C(N)=O)[C@@H](C)O)C(C)C)[C@@H](C)O) [Compound 132] | 2.75
Isovaleryl-APEK([Ahx-γGlu-C18 diacid])PEADAEPEEIQRYYVALRHYYNWLTRQRY-NH2 (SMILES CC[C@H](C)[C@H](NC(=O)[C@H](CCC(=O)O)NC(=O)[C@H](CCC(=O)O)NC(=O)[C@@H]1CCCN1C(=O)[C@H](CCC(=O)O)NC(=O)[C@H](C)NC(=O)[C@H](CC(=O)O)NC(=O)[C@H](C)NC(=O)[C@H](CCC(=O)O)NC(=O)[C@@H]1CCCN1C(=O)[C@H](CCCCNC(=O)CCCCCNC(=O)CC[C@H](NC(=O)CCCCCCCCCCCCCCCCC(=O)O)C(=O)O)NC(=O)[C@H](CCC(=O)O)NC(=O)[C@@H]1CCCN1C(=O)[C@H](C)NC(=O)CC(C)C)C(=O)N[C@@H](CCC(N)=O)C(=O)N[C@@H](CCCNC(=N)N)C(=O)N[C@@H](Cc1ccc(O)cc1)C(=O)N[C@@H](Cc1ccc(O)cc1)C(=O)N[C@H](C(=O)N[C@@H](C)C(=O)N[C@@H](CC(C)C)C(=O)N[C@@H](CCCNC(=N)N)C(=O)N[C@@H](Cc1c[nH]cn1)C(=O)N[C@@H](Cc1ccc(O)cc1)C(=O)N[C@@H](Cc1ccc(O)cc1)C(=O)N[C@@H](CC(N)=O)C(=O)N[C@@H](Cc1c[nH]c2ccccc12)C(=O)N[C@@H](CC(C)C)C(=O)N[C@H](C(=O)N[C@@H](CCCNC(=N)N)C(=O)N[C@@H](CCC(N)=O)C(=O)N[C@@H](CCCNC(=N)N)C(=O)N[C@@H](Cc1ccc(O)cc1)C(N)=O)[C@@H](C)O)C(C)C) [Compound 131] | 1.54
Isovaleryl-APEK([Ahx-γGlu-C18 diacid])PEEDATPEELQLYYVSLRHYYNWLTRQRY-NH2 (SMILES CC(C)CC(=O)N[C@@H](C)C(=O)N1CCC[C@H]1C(=O)N[C@@H](CCC(=O)O)C(=O)N[C@@H](CCCCNC(=O)CCCCCNC(=O)CC[C@H](NC(=O)CCCCCCCCCCCCCCCCC(=O)O)C(=O)O)C(=O)N1CCC[C@H]1C(=O)N[C@@H](CCC(=O)O)C(=O)N[C@@H](CCC(=O)O)C(=O)N[C@@H](CC(=O)O)C(=O)N[C@@H](C)C(=O)N[C@H](C(=O)N1CCC[C@H]1C(=O)N[C@@H](CCC(=O)O)C(=O)N[C@@H](CCC(=O)O)C(=O)N[C@@H](CC(C)C)C(=O)N[C@@H](CCC(N)=O)C(=O)N[C@@H](CC(C)C)C(=O)N[C@@H](Cc1ccc(O)cc1)C(=O)N[C@@H](Cc1ccc(O)cc1)C(=O)N[C@H](C(=O)N[C@@H](CO)C(=O)N[C@@H](CC(C)C)C(=O)N[C@@H](CCCNC(=N)N)C(=O)N[C@@H](Cc1c[nH]cn1)C(=O)N[C@@H](Cc1ccc(O)cc1)C(=O)N[C@@H](Cc1ccc(O)cc1)C(=O)N[C@@H](CC(N)=O)C(=O)N[C@@H](Cc1c[nH]c2ccccc12)C(=O)N[C@@H](CC(C)C)C(=O)N[C@H](C(=O)N[C@@H](CCCNC(=N)N)C(=O)N[C@@H](CCC(N)=O)C(=O)N[C@@H](CCCNC(=N)N)C(=O)N[C@@H](Cc1ccc(O)cc1)C(N)=O)[C@@H](C)O)C(C)C)[C@@H](C)O) [Compound 130] | 9.36
Isovaleryl-APEK([Ahx-γGlu-C18 diacid])PEAAAEPEELQRYYVALRHYYNWLTRQRY-NH2 (SMILES CC(C)CC(=O)N[C@@H](C)C(=O)N1CCC[C@H]1C(=O)N[C@@H](CCC(=O)O)C(=O)N[C@@H](CCCCNC(=O)CCCCCNC(=O)CC[C@H](NC(=O)CCCCCCCCCCCCCCCCC(=O)O)C(=O)O)C(=O)N1CCC[C@H]1C(=O)N[C@@H](CCC(=O)O)C(=O)N[C@@H](C)C(=O)N[C@@H](C)C(=O)N[C@@H](C)C(=O)N[C@@H](CCC(=O)O)C(=O)N1CCC[C@H]1C(=O)N[C@@H](CCC(=O)O)C(=O)N[C@@H](CCC(=O)O)C(=O)N[C@@H](CC(C)C)C(=O)N[C@@H](CCC(N)=O)C(=O)N[C@@H](CCCNC(=N)N)C(=O)N[C@@H](Cc1ccc(O)cc1)C(=O)N[C@@H](Cc1ccc(O)cc1)C(=O)N[C@H](C(=O)N[C@@H](C)C(=O)N[C@@H](CC(C)C)C(=O)N[C@@H](CCCNC(=N)N)C(=O)N[C@@H](Cc1c[nH]cn1)C(=O)N[C@@H](Cc1ccc(O)cc1)C(=O)N[C@@H](Cc1ccc(O)cc1)C(=O)N[C@@H](CC(N)=O)C(=O)N[C@@H](Cc1c[nH]c2ccccc12)C(=O)N[C@@H](CC(C)C)C(=O)N[C@H](C(=O)N[C@@H](CCCNC(=N)N)C(=O)N[C@@H](CCC(N)=O)C(=O)N[C@@H](CCCNC(=N)N)C(=O)N[C@@H](Cc1ccc(O)cc1)C(N)=O)[C@@H](C)O)C(C)C) [Compound 127] | 3.36
Isovaleryl-APEK([Ahx-γGlu-C18 diacid])PEEDAEPEELQRYYVSLRHYYNWLTRQRY-NH2 (SMILES CC(C)CC(=O)N[C@@H](C)C(=O)N1CCC[C@H]1C(=O)N[C@@H](CCC(=O)O)C(=O)N[C@@H](CCCCNC(=O)CCCCCNC(=O)CC[C@H](NC(=O)CCCCCCCCCCCCCCCCC(=O)O)C(=O)O)C(=O)N1CCC[C@H]1C(=O)N[C@@H](CCC(=O)O)C(=O)N[C@@H](CCC(=O)O)C(=O)N[C@@H](CC(=O)O)C(=O)N[C@@H](C)C(=O)N[C@@H](CCC(=O)O)C(=O)N1CCC[C@H]1C(=O)N[C@@H](CCC(=O)O)C(=O)N[C@@H](CCC(=O)O)C(=O)N[C@@H](CC(C)C)C(=O)N[C@@H](CCC(N)=O)C(=O)N[C@@H](CCCNC(=N)N)C(=O)N[C@@H](Cc1ccc(O)cc1)C(=O)N[C@@H](Cc1ccc(O)cc1)C(=O)N[C@H](C(=O)N[C@@H](CO)C(=O)N[C@@H](CC(C)C)C(=O)N[C@@H](CCCNC(=N)N)C(=O)N[C@@H](Cc1c[nH]cn1)C(=O)N[C@@H](Cc1ccc(O)cc1)C(=O)N[C@@H](Cc1ccc(O)cc1)C(=O)N[C@@H](CC(N)=O)C(=O)N[C@@H](Cc1c[nH]c2ccccc12)C(=O)N[C@@H](CC(C)C)C(=O)N[C@H](C(=O)N[C@@H](CCCNC(=N)N)C(=O)N[C@@H](CCC(N)=O)C(=O)N[C@@H](CCCNC(=N)N)C(=O)N[C@@H](Cc1ccc(O)cc1)C(N)=O)[C@@H](C)O)C(C)C) [Compound 126] | 4.42
